How the values were obtained:
Experiment in all cases: purified protein
Assay type in all cases: biochemical, Plasmodium falciparum
[1] = substrate: C=C(C)CCO[P@@](=O)(O)OP(=O)(O)O; conditions: Mg2+ ([…] MgCl2 in assay) second substrate
[2] = substrate: CC(C)=CCC/C(C)=C/CC/C(C)=C/CO[P@@](=O)(O)OP(=O)(O)O; conditions: Mg2+ ([…] MgCl2 in assay) allylic substrate; DMAPP, GPP, and FPP all compete for binding to the free enzyme active site
[3] = substrate: CC(C)=CCC/C(C)=C/COP(=O)(O)OP(=O)(O)O; conditions: Mg2+ ([…] MgCl2 in assay) allylic substrate; DMAPP, GPP, and FPP all compete for binding to the free enzyme active site
[4] = substrate: CC(C)=CCOP(=O)(O)OP(=O)(O)O; conditions: Mg2+ ([…] MgCl2 in assay) allylic substrate; DMAPP, GPP, and FPP all compete for binding to the free enzyme active site

B1: farnesyl diphosphate/geranylgeranyl diphosphate synthase (rPfFPPS) (Plasmodium falciparum 3D7) (protein)
chain: MENEQNNQDSENGLDYFRSMYDRYRDVFINHINDYVLEDDIKIIISKYYKLLFDYNCLGGKNNRGILVILIYEYVKNRDINCNEWEKVACIAWCIEILQASFLVADDIMDKGETRRNKHCWYLLKDVEIKNAVNDVFLLYNAIYKLLDVYLRNDNCYLDLITSFREATLKTIVGQHLDTNIFSDKYSHIDKDIDVNNINISQENKININMLNFKVYQNIIIHKTAYYSFFLPIVCGMQMGGISLDNLLYKKVENIAILMGEYFQVHDDYIDTFGDSKKTGKVGSDIQNNKLTWPLIKAFELCSQPEKEDIIRNYGKDNVTCIKFINDIYEHYNIRDHYVEYEKKQKMKILEAINQLHHEGIEYVLKYVMDILFTGA
notes: full length protein expressed as a GST fusion protein
Km [1]: 2.4 ± 0.3 µM
Vmax [1]: 0.156 µmol/min/mg
Km [2]: 2.06 ± 0.4 µM
Vmax [2]: 0.327 µmol/min/mg
Km [3]: 7.8 ± 1.3 µM
Vmax [3]: 0.341 µmol/min/mg
Km [4]: 68 ± 5 µM
Vmax [4]: 0.453 µmol/min/mg

Reference: paper PMC3679732, “Cloning and characterization of bifunctional enzyme farnesyl diphosphate/geranylgeranyl diphosphate synthase from Plasmodium falciparum” (Malaria Journal, 2013)
